Residue numbers refer to the chain shown, from its start. In names and notes the source's numbering stands.
B1: scVEGFwt (ligand)
chain: YVEVVKFMDVYQRSYCHPIETLVDIFQEYPDEIEYIFKPSCVPLMRCGGCCNDEGLECVPTEESNITMQIMRIKPHQGQHIGEMSFLQHNKCECRPKKDGSTSGSGKSSEGKGEVVKFMDVYQRSYCHPIETLVDIFQEYPDEIEYIFKPSCVPLMRCGGCCNDEGLECVPTEESNITMQIMRIKPHQGQHIGEMSFLQHNKCECRPKKDTR
notes: also called wild-type scVEGF; single-chain VEGF
B2: scVEGF-mE (designed binder)
chain: EVVKAMDVYQRSYCHPIETLVDILQEYPDEIGYIFKPSCVPLMRCGGCCNGAGLECVPTEESNITMQIMRIKPHRGQHIGEMSFLQHNKCECRPKKDGSTSGSGKSSEGKGEVVRFMDVYQRSYCHPIETLVDIFQEYPNEIEYAFKPSCVPLMRCGGCCNNEGLECVPTEESNITMQIMRAKPHQGQHIGEMSFLQHNKCECRPKKD
notes: Soluble protein with C-terminal hexahistidine tag, with or without N-terminal FLAG tag (tags not included in the parts); also called scVEGFmut-E
B3: scVEGFmut (designed binder)
chain: B1 chain with F7A, E54A, I147A, I184A
notes: scVEGF with chain 1 F17A, E64A and chain 2 I46A, I83A (VEGF121 numbering); Soluble protein from P. pastoris with C-terminal hexahistidine tag, with or without N-terminal FLAG tag
B4: scVEGFrgd-7I (designed binder)
chain: EVVKAMDVYQRSYCHPIETLVDIFQEYPDEIEYIFKPSCVPLMRCGGCCNDAGLECVPTEESNITMQIMRIKPHQGQHIGEMSFLQHNKCECRPKKDGSTSGSGKSSEGKGEVVKFMDVYQRSYCHPIETLVDIFQEYPDEIEYAFKPSCVPLMRCGGCCNDEGLECVPTEESNITMQIMRPSVRRGDSPASHIGEMSFLQHNKCECRPKKDTR
notes: Soluble protein from P. pastoris with C-terminal hexahistidine tag, with or without N-terminal FLAG tag; also called scVEGF-7I
B5: scVEGF-mA (designed binder)
chain: B2 chain with V3A, R11K, G51D, H74Y, R75Q, R115K, N140D, E141K, M180T
notes: Soluble protein from P. pastoris with C-terminal hexahistidine tag, with or without N-terminal FLAG tag (tags not included in the parts); also called scVEGFmut-A
B6: scVEGF-mJ (designed binder)
chain: B2 chain with V2I, M6R, G32E, G51D, H74Y, R75Q, Q77H, R115K, N140D, I190T
notes: Soluble protein with C-terminal hexahistidine tag, with or without N-terminal FLAG tag (tags not included in the parts); also called scVEGFmut-J
B7: scVEGF-mM (designed binder)
chain: EVVKAMDVYRRSYCHPVETSVDILQEYPDEIEYIFKPSCVPLMRCGGCCNDAGLECVPTEESNTTMQIMRIKPYRGQHIGEMSFLQHNKCECRPKKDGSTSGSGKSSEGKGEVVKFMDVYQRSYCHPIETLVDIFQEYPDEIEYAFKPSCVSLMRCGGCCNNEGLECVPTEESNITVQIMGAKPHQGQHIGEMSFLQHNKCECRPKKD
notes: Soluble protein with C-terminal hexahistidine tag, with or without N-terminal FLAG tag (tags not included in the parts); also called scVEGFmut-M
B8: scVEGFrgd-7H (designed binder)
chain: EVVKAMDVYQRSYCHPIETLVDIFQEYPDEIEYIFKPSCVPLMRCGGCCNDAGLECVPTEESNITMQIMRIKPHQGQHIGEMSFLQHNKCECRPKKDGSTSGSGKSSEGKGEVVKFMDVYQRSYCHPIETLVDIFQEYPDEIEYAFKPSCVPLMRCGGCCNDEGLECVPTEESNITMQIMRPGGRGDSAYHIGEMSFLQHNKCECRPKKDTR
notes: Soluble protein from P. pastoris with C-terminal hexahistidine tag, with or without N-terminal FLAG tag; also called scVEGF-7H
B9: scVEGFrgd-7P (designed binder)
chain: B8 chain with G183A, G184S, A189P, Y190P
notes: Soluble protein from P. pastoris with C-terminal hexahistidine tag, with or without N-terminal FLAG tag; also called scVEGF-7P
B10: scVEGFrgd-7B (designed binder)
chain: B8 chain with G183H, G184D, S188A, A189G, Y190V
notes: Soluble protein from P. pastoris with C-terminal hexahistidine tag, with or without N-terminal FLAG tag

The binders below were run against T1, human αvβ3 integrin on cells (human, UniProt P06756 31-1048; P05106 27-788) (assay: flow cytometry on K562-αvβ3 cells).
T1 construct: whole, on cells; also called avb3; alpha v beta 3
T1 sequence (P06756 31-1048, chain 1 of 2): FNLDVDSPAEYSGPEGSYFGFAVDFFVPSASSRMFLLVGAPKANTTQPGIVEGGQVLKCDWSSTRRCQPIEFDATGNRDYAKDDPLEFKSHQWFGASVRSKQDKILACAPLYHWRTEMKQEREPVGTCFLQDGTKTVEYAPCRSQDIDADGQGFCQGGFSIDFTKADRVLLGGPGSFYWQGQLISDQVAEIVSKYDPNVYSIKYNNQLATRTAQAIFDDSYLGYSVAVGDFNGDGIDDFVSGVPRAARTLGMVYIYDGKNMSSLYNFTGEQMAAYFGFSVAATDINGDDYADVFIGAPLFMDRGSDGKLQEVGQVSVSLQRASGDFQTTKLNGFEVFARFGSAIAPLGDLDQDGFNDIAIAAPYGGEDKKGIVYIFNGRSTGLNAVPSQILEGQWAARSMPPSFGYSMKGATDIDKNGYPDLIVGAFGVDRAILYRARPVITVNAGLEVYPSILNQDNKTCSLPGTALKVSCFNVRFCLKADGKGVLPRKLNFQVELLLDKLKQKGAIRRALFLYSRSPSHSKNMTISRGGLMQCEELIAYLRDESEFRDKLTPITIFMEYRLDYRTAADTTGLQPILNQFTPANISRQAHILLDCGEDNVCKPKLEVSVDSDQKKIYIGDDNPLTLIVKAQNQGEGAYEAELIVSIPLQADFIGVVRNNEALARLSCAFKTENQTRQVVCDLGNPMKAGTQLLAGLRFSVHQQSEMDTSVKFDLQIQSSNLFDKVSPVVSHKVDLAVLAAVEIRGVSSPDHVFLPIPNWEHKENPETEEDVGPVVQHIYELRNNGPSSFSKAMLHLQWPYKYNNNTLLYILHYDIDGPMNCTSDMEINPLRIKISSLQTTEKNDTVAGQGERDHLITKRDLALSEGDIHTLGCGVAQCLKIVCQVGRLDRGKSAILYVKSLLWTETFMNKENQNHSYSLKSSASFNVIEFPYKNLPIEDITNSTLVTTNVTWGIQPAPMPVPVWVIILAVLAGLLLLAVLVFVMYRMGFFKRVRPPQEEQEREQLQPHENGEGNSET
T1 sequence (P05106 27-788, chain 2 of 2): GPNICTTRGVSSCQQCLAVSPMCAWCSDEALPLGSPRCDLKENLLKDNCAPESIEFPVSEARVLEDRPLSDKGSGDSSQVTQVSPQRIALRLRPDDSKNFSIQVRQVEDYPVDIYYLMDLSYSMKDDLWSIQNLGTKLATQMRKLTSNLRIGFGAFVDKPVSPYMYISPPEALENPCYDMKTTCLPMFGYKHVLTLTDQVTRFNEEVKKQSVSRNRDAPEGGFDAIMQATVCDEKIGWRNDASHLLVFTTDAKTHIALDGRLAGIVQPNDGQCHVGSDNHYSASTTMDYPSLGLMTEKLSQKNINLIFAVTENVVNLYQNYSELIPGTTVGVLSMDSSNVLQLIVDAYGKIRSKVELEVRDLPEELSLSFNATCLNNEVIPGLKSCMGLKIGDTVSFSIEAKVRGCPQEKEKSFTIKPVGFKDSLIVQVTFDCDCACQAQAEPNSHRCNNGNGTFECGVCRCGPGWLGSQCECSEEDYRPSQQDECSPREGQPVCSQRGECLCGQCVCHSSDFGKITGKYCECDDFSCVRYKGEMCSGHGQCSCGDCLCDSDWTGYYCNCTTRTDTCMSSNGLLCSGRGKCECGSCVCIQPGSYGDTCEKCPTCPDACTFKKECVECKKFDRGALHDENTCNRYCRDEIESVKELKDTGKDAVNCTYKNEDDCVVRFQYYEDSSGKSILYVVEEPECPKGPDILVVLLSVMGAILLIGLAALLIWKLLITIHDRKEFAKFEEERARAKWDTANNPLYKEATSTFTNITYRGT

Binder	binding result
B1	no binding (tested: 1 µM)

What follows are binders tested against T2, human VEGFR2 on cells (PAE/KDR cells, HUVEC) (human, UniProt P35968 20-1356) (assay: flow cytometry titration on HUVEC, optimized conditions of Example 3, anti-FLAG detection).
T2 construct: whole, on cells
T2 sequence (P35968 20-1356): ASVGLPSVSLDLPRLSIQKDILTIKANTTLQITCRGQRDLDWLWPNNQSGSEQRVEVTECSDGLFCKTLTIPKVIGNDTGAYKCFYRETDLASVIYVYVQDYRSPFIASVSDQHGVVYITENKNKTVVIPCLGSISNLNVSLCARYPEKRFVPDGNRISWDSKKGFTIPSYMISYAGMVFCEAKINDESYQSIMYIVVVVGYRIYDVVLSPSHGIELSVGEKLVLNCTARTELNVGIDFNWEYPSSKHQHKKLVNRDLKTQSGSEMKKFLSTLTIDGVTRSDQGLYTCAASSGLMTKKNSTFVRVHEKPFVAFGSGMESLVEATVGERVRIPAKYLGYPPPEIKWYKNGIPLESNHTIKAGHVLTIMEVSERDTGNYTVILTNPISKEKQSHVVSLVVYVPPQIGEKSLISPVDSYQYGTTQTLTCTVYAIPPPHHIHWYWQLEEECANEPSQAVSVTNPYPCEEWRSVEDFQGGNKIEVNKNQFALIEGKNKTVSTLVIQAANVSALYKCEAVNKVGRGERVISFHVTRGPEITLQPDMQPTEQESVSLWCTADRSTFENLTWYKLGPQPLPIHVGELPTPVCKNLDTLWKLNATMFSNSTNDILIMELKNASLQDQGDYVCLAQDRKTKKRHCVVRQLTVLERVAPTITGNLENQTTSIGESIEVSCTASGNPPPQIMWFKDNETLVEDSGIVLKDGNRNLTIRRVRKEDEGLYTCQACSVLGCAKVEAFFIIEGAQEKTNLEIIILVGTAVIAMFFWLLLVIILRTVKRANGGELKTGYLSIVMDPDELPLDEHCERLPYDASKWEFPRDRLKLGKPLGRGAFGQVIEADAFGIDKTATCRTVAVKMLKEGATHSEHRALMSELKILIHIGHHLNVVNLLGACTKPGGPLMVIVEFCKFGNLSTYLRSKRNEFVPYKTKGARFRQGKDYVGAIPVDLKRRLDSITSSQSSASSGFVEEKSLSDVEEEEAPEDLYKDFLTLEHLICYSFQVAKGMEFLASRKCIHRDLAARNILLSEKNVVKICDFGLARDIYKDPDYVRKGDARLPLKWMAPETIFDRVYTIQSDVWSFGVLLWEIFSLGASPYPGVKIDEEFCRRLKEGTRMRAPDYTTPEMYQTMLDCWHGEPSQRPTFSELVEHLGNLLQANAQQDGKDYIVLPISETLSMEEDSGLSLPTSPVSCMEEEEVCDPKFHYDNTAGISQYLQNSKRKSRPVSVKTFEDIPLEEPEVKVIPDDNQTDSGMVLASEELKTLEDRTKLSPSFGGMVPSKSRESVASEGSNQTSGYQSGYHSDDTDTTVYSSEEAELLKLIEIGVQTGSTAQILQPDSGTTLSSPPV

Binder	Kd [nM]
B2	0.4
B3	44

What follows are binders tested against VEGFR2 and αvβ3 integrin, both expressed on human umbilical vein endothelial cells (HUVEC) (human) (UniProt P35968) (assay: cell-based or functional assay).
VEGFR2 and αvβ3 integrin, both expressed on human umbilical vein endothelial cells (HUVEC) (human), sequence (P35968 20-1356, chain 1 of 3): as the sequence (P35968 20-1356) above
VEGFR2 and αvβ3 integrin, both expressed on human umbilical vein endothelial cells (HUVEC) (human), sequence (P06756 31-1048, chain 2 of 3, further chain): as the sequence (P06756 31-1048, chain 1 of 2) above
VEGFR2 and αvβ3 integrin, both expressed on human umbilical vein endothelial cells (HUVEC) (human), sequence (P05106 27-788, chain 3 of 3, further chain): as the sequence (P05106 27-788, chain 2 of 2) above

Binder	inhibition of VEGF-induced autophosphorylation of VEGFR-2 in HUVEC in the presence of vitronectin [%]
B4	80

The binders below were run against T3, αvβ5 integrin on transfected K562 cells (UniProt P06756 31-1048; P18084 24-799, limits assumed) (assay: flow cytometry on K562 cells transfected with αvβ5).
T3 construct: whole, on cells

Binder	binding result
B4	no binding
B5	no binding
B2	no binding
B6	no binding
B7	no binding
B8	no binding
B9	no binding

The binders below were run against T1, human αvβ3 integrin on cells (assay: cell-based or functional assay).

Binder	IC50 of inhibition of vitronectin-mediated adhesion of HUVEC cells [nM]
B4	< 10
B8	< 10
B9	< 10

What follows are binders tested against T4, αiibβ3 integrin on transfected K562 cells (UniProt P08514 32-1039; P05106 27-788, limits assumed) (assay: flow cytometry on K562 cells transfected with αiibβ3).
T4 construct: whole, on cells
T4 sequence (P08514 32-1039 limits assumed, chain 1 of 2): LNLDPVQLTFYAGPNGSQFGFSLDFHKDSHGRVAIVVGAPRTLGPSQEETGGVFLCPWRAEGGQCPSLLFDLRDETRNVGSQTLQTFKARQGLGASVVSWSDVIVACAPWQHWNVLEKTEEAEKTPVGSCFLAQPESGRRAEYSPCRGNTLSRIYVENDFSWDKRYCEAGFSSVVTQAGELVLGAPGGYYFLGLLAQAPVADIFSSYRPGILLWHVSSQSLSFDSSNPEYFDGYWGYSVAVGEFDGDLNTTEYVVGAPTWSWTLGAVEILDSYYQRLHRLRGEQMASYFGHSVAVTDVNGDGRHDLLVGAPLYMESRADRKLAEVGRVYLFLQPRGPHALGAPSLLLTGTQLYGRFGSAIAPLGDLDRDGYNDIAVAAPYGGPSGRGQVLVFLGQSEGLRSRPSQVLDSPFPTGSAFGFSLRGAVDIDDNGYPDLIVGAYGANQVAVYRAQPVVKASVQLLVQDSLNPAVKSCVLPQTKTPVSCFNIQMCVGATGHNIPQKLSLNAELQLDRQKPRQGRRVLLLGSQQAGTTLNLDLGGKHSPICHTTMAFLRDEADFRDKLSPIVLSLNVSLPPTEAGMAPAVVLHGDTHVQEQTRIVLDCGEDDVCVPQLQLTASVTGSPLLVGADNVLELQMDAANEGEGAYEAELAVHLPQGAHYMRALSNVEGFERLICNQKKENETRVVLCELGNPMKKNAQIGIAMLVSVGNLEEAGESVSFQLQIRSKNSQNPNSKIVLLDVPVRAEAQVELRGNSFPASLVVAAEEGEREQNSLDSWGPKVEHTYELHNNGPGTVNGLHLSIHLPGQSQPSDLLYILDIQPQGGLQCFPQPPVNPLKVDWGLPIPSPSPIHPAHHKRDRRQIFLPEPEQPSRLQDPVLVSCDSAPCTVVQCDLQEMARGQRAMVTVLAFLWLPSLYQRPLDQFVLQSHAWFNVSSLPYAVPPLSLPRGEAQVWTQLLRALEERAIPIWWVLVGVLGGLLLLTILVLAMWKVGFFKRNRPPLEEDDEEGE
T4 sequence (P05106 27-788 limits assumed, chain 2 of 2): as the sequence (P05106 27-788, chain 2 of 2) above

Binder	binding result
B4	no binding
B5	no binding
B2	no binding
B6	no binding
B7	no binding
B8	no binding
B9	no binding

What follows are binders tested against T1, human αvβ3 integrin on cells (assay: flow cytometry titration on K562-αvβ3 cells).

Binder	Kd [nM]
B10	143

Each binder was assayed against T5, VEGFR2 on SVR angiosarcoma cells (murine cell line) (murine, UniProt P35918 20-1345) (assay: flow cytometry titration on SVR cells, optimized conditions of Example 3, anti-FLAG detection).
T5 construct: whole, on cells

Binder	Kd [nM]
B2	0.7
B3	> 40

What follows are binders tested against VEGFR2 and αvβ3 integrin, both expressed on human umbilical vein endothelial cells (HUVEC) (human) (UniProt P35968) (assay: flow cytometry titration on HUVEC (VEGFR2 and αvβ3 both present), anti-FLAG detection).

Binder	Kd [nM]
B4	6
B8	12
B9	45

What follows are binders tested against T1, human αvβ3 integrin on cells (assay: flow cytometry titration on U87MG cells (no VEGFR2; receptor not named by the filing), anti-FLAG detection).

Binder	Kd [nM]
B4	13.9
B8	15.6
B9	29

Each binder was assayed against T6, recombinant human VEGFR2 extracellular domain (human, UniProt P35968 20-764) (assay: SPR (BIAcore 3000), VEGFR2 amine-coupled to CM5 chip, scVEGF as analyte, 1:1 model).
T6 construct: extracellular domain; also called KDR; Flk-1
T6 sequence (P35968 20-764): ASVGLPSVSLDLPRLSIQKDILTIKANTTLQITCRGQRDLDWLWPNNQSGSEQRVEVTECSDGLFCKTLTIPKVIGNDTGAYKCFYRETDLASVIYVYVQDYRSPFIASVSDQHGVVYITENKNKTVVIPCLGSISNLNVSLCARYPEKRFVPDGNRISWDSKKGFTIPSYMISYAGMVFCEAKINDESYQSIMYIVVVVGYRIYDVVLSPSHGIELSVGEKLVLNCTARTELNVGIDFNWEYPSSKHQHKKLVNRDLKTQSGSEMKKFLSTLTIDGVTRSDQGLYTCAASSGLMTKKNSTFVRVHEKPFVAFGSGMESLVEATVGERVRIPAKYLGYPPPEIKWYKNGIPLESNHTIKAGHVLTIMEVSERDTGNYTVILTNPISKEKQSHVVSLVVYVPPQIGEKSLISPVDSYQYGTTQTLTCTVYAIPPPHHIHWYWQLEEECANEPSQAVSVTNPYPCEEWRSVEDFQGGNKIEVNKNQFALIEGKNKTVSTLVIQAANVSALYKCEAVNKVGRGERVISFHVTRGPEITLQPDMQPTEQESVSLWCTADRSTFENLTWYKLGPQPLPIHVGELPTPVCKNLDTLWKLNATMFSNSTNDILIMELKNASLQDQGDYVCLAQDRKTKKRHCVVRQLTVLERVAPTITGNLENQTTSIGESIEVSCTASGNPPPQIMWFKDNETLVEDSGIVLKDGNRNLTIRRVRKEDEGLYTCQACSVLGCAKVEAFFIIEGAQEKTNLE

Binder	Kd [nM]	koff [s⁻¹]	kon [M⁻¹ s⁻¹]
B5	2.1	0.00049	240000
B2	2.8	0.00061	220000
B6	1.6	0.0003	200000
B1	4	0.0007	200000
B3	18	0.00146	83000
B7	3.8	0.00108	290000

Each binder was assayed against T7, α5β1 integrin on wild-type K562 cells (UniProt P08648 42-1049; P05556 21-798, limits assumed) (assay: flow cytometry on wild-type K562 cells).
T7 construct: whole, on cells

Binder	binding result
B4	no binding
B5	no binding
B2	no binding
B6	no binding
B7	no binding
B8	no binding
B9	no binding

The binders below were run against T2, human VEGFR2 on cells (PAE/KDR cells, …) (assay: flow cytometry titration on PAE/KDR cells, optimized conditions of Example 3, anti-FLAG detection).

Binder	Kd [nM]
B5	0.5
B2	0.9
B6	0.5
B3	55

Each binder was assayed against T1, human αvβ3 integrin on cells (assay: flow cytometry on U87MG cells (no VEGFR2; receptor not named by the filing)).

Binder	binding result
B5	no binding (tested: 1 µM)
B2	no binding (tested: 1 µM)
B6	no binding (tested: 1 µM)
B3	no binding (tested: 1 µM)
B7	no binding (tested: 1 µM)

Each binder was assayed against T2, human VEGFR2 on cells (PAE/KDR cells, …) (assay: flow cytometry titration on PAE/KDR cells, anti-FLAG detection).

Binder	Kd [nM]
B5	5.7
B2	6.6
B6	6.9
B1	9.8
B3	17
B7	34

Each binder was assayed against T1, human αvβ3 integrin on cells (assay: flow cytometry titration on K562-αvβ3 cells, anti-His detection).

Binder	Kd [nM]
B4	34
B8	36
B10	140
B9	37

These binders were tested against T2, human VEGFR2 on cells (PAE/KDR cells, …) (assay: flow cytometry titration on PAE/KDR cells (also carry porcine αvβ3; filing ascribes binding to VEGFR2), anti-FLAG detection).

Binder	Kd [nM]
B4	20
B8	16
B9	21

What follows are binders tested against T2, human VEGFR2 on cells (PAE/KDR cells, …) (assay: flow cytometry titration on HUVEC, anti-FLAG detection).

Binder	Kd [nM]
B5	36
B2	53
B6	39
B1	28
B3	101

These binders were tested against VEGFR2 and αvβ3 integrin, both expressed on SVR angiosarcoma cells (murine cell line) (murine) (UniProt P35918) (assay: flow cytometry titration on SVR cells (VEGFR2 and αvβ3 both present), anti-FLAG detection).

Binder	Kd [nM]
B4	37
B8	18
B9	31

What follows are binders tested against T5, VEGFR2 on SVR angiosarcoma cells … (assay: flow cytometry titration on SVR cells, anti-FLAG detection).

Binder	Kd [nM]
B5	13
B2	8
B6	3
B1	32

Each binder was assayed against T8, porcine αvβ3 integrin on PAE cells (porcine, UniProt A0A5K1V6L8 31-1052; A0A8D0RDV2 33-793) (assay: flow cytometry titration on PAE cells, anti-FLAG detection).
T8 construct: whole, on cells

Binder	Kd [nM]
B4	18.6
B8	26.5
B9	26.9

These binders were tested against T8, porcine αvβ3 integrin on PAE cells (assay: flow cytometry on PAE cells).

Binder	binding result
B5	no binding (tested: 1 µM)
B2	no binding (tested: 1 µM)
B6	no binding (tested: 1 µM)
B1	no binding (tested: 1 µM)
B3	no binding (tested: 1 µM)
B7	no binding (tested: 1 µM)

Each binder was assayed against T5, VEGFR2 on SVR angiosarcoma cells … (assay: flow cytometry on SVR cells).

Binder	binding result
B7	no binding (tested: 1 µM)
